These results are taken from paper PMC10411625, “Rationally designed stapled peptides allosterically inhibit PTBP1–RNA-binding” (Chemical Science, 2023).

This data set can be described thus: circular dichroism. The settings on record: 20 mM sodium phosphate, 10 mM NaF; pH 8; 20 °C; 50 uM.
`CC(=O)N[C@@H](CC(N)=O)C(=O)N[C@@H](CCC(N)=O)C(=O)N[C@@H](C)C(=O)N[C@@H](CCCNC(=N)N)C(=O)N[C@@H](C)C(=O)N[C@@H](CCC(N)=O)C(=O)N[C@@]1(C)CCCCCCCC[C@@](C)(C(=O)N[C@H](C(=O)N[C@@H](CC(N)=O)C(N)=O)C(C)C)NC(=O)[C@H](CCC(N)=O)NC(=O)[C@H](CC(C)C)NC(=O)[C@H](C)NC1=O`: the helicity was 57.8%.
Consider `CC(=O)N[C@@H](CC(N)=O)C(=O)N[C@@H](CCC(N)=O)C(=O)N[C@@]1(C)CCCC=CCCC[C@]2(CCCC=CCCC[C@](C)(C(=O)N[C@H](C(=O)N[C@@H](CC(N)=O)C(N)=O)C(C)C)NC(=O)[C@H](CCC(N)=O)NC(=O)[C@H](CC(N)=O)NC(=O)[C@H](C)NC2=O)NC(=O)[C@H](CCC(N)=O)NC(=O)[C@H](C)NC(=O)[C@H](CCCNC(=N)N)NC1=O`, for which the helicity was 100%.
In the case of `CC(=O)N[C@@H](CC(N)=O)C(=O)N[C@@H](CCC(N)=O)C(=O)N[C@@]1(C)CCCCCCCC[C@@](C)(C(=O)N[C@@H](C)C(=O)N[C@@H](CC(C)C)C(=O)N[C@@H](CCC(N)=O)C(=O)N[C@@H](C)C(=O)N[C@H](C(=O)N[C@@H](CC(N)=O)C(N)=O)C(C)C)NC(=O)[C@H](CCC(N)=O)NC(=O)[C@H](C)NC(=O)[C@H](CCCNC(=N)N)NC1=O`, the helicity was 92.3%.
Under Ac-NQARAQAALQAVNR-NH2 stands 20.2%; under `CC(=O)N[C@@H](CC(N)=O)C(=O)N[C@@H](CCC(N)=O)C(=O)N[C@@H](C)C(=O)N[C@@H](CCCNC(=N)N)C(=O)N[C@@H](C)C(=O)N[C@@]1(C)CCCCCCCC[C@@](C)(C(=O)N[C@@H](C)C(=O)N[C@H](C(=O)N[C@@H](CC(N)=O)C(N)=O)C(C)C)NC(=O)[C@H](CC(C)C)NC(=O)[C@H](C)NC(=O)[C@H](C)NC1=O`, 77.3%.
For `CC(=O)N[C@H](C(=O)N[C@@H](CCC(N)=O)C(=O)N[C@@]1(C)CCCC=CCCC[C@]2(CCCC=CCCC[C@](C)(C(=O)N[C@H](C(=O)N[C@@H](CC(N)=O)C(N)=O)C(C)C)NC(=O)[C@H](CCC(N)=O)NC(=O)[C@H](CC(C)C)NC(=O)[C@H](C)NC2=O)NC(=O)[C@H](CCC(N)=O)NC(=O)[C@H](C)NC(=O)[C@H](CCCNC(=N)N)NC1=O)C(C)C`, the helicity was found to be 100%.
In turn, `CC(=O)N[C@@H](CC(N)=O)C(=O)N[C@@H](CCC(N)=O)C(=O)N[C@@]1(C)CCCC=CCCC[C@]2(CCCC=CCCC[C@](C)(C(=O)N[C@H](C(=O)N[C@@H](CC(=O)O)C(N)=O)C(C)C)NC(=O)[C@H](CCC(N)=O)NC(=O)[C@H](CC(C)C)NC(=O)[C@H](C)NC2=O)NC(=O)[C@H](CCC(N)=O)NC(=O)[C@H](C)NC(=O)[C@H](CCCNC(=N)N)NC1=O` returned a helicity of 98.2%.
Then `CC(=O)N[C@@H](CC(N)=O)C(=O)N[C@@H](CCC(N)=O)C(=O)N[C@@]1(C)CCCC=CCCC[C@]2(CCCC=CCCC[C@](C)(C(=O)N[C@H](C(=O)N[C@@H](CC(N)=O)C(N)=O)C(C)C)NC(=O)[C@H](CCC(N)=O)NC(=O)[C@H](CC(C)C)NC(=O)[C@H](C)NC2=O)NC(=O)[C@H](CCC(N)=O)NC(=O)[C@H](C)NC(=O)[C@H](CCCNC(=N)N)NC1=O`, with 100%; and `CC(=O)N[C@@H](CC(N)=O)C(=O)N[C@@H](CCC(N)=O)C(=O)N[C@@]1(C)CCCC=CCCC[C@]2(CCCC=CCCC[C@](C)(C(=O)N[C@H](C(=O)N[C@@H](CC(N)=O)C(N)=O)C(C)C)NC(=O)[C@H](CCC(N)=O)NC(=O)[C@H](CC(C)C)NC(=O)[C@H](C)NC2=O)NC(=O)[C@H](CCC(N)=O)NC(=O)[C@H](C)NC(=O)[C@H](CCNC(=N)N)NC1=O`, with 100%.
